According to publication PMC12463286:
Substitutions are numbered along the chain they refer to.

How the values were obtained:
Assay in all cases: EMSA
Details in all cases: pH 7.5, 30 min at 37 C
[1] = target: T1, FadR-T230A T230A (Streptococcus suis serotype 2 strain ZY05719) (UniProt A0A0H3MZ02)
T1 sequence: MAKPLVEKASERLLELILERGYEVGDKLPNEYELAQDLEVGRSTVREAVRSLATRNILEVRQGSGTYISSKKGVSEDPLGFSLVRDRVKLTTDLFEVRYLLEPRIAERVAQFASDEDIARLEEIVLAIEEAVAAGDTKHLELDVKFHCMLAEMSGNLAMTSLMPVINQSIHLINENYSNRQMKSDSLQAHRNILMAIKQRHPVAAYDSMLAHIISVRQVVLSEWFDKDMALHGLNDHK

[2] = target: T2, FadR-T230E T230E (Streptococcus suis serotype 2 strain ZY05719) (UniProt A0A0H3MZ02)
T2 sequence: T1 sequence with A230E

[3] = target: T3, FadR (Streptococcus suis serotype 2 strain ZY05719) (UniProt A0A0H3MZ02)
T3 sequence: T1 sequence with A230T

Measured: binding

CTGTCCTCCTTGTAGATTTATACATGATGGGAAACGAGGAGGACCGTACGCTTTCCTGCCTCTCATTTCCTCTTTACATCCATAGTTTAACAGAGCAAAAAAACAAAAACTTGAAAACGCTCACATTTATTTTGAGAAATTCTTCACATTTTTAACCTTATTTATAAATAATTATCGATTATATCATCTAAATTCTGCATAATTCTTTCCGTTATATCATTATATGAATTTTTATTTTTTTATAAAAAACAGAAACTTCAATGAGTTTCTGTCAAATTTTCTAAGAAATAATCAATATCT (double strand) [adi promoter]
binds: all assays above
